According to article PMC10950897, “VCF1 is a p97/VCP cofactor promoting recognition of ubiquitylated p97-UFD1-NPL4 substrates” (Nature Communications, 2024):

Tests used:
p97 hexamer (His6-p97) = test: Mass photometry; format: binding, human; details: saturating VCF1, absence of other cofactors
Protocol: Mass photometry experiments were performed on a Refeyn One (Refeyn Ltd) mass photometer at room temperature. Measurements were run in triplicates, diluting 3 μl of protein sample (20 nM) in 15 μl PBS buffer loaded on a gasket (Grace Bio-Labs reusable CultureWell gaskets (GBL103250, Merck)) mounted on a glass microscope coverslip (0107222, Marienfeld). Experiments were performed with His6-p97 alone and in presence of saturating concentrations of full-length Strep-HA-VCF1. The molecular weight was obtained by contrast comparison with known molecular weight mass standard calibrants (NativeMark Unstained Protein Standard (LC0725), Thermo Fischer Scientific) measured on the same buffer and on the same day. Movies were recorded using AcquireMP (Refeyn Ltd, version 2022 R1), with a medium field of view and exposure time of 0.95 ms for the acquisition camera settings. A total of 6000 frames were recorded over a duration of one minute. Movies were processed and analysed with the DiscoverMP software (Refeyn Ltd, version 2022 R1) provided by the instrument manufacturer.

Ub(G76V)-GFP, U2OS cells = test: QIBC of Ub(G76V)-GFP in cells overexpressing FLAG-tagged proteins; format: cell-based, human; details: FLAG-tagged plasmids, FLAG-positive cells
Protocol: U2OS (catalog no. HTB-96) cells were obtained from ATCC. HEK293-EBNA1-6E cells were a kind gift from Yves Durocher (National Research Council Canada, Montreal, Canada). All mammalian cell lines were cultured under standard conditions at 37 °C and 5% CO2 in DMEM (Thermo) supplemented with 10% FBS (v/v) and penicillin-streptomycin (Thermo). Recombination cloning-compatible U2OS cells were generated using the Flp-In T-Rex Core Kit (Thermo) according to the manufacturer’s instructions and maintained under selection using Blasticidin (Invivogen) and Zeocin (Thermo). To generate cell lines stably expressing GFP-VCF1, U2OS Flp-In T-Rex cells (Thermo) were co-transfected with GFP-VCF1 constructs and pOG44 (Thermo) plasmids, followed by selection with Hygromycin (Invitrogen). Single clones were carefully screened for uniform expression of ectopic GFP-VCF1 at low levels and maintained under selection with Blasticidin and Hygromycin. To induce GFP-VCF1 expression, cells were treated with Doxycycline (DOX) (0.5 µg/ml) for 16 h. U2OS cell lines stably expressing Ub(G76V)-GFP or Ub(G76V)-GFP-20AA were described previously. A U2OS cell line stably expressing Ub(G76V)-GFP-NES was generated under G418 (Invivogen) selection. […]
Mammalian cells grown on coverslips were fixed in formalin buffer (VWR) for 15 min at room temperature (RT). […] Quantitative image-based cytometry (QIBC) was performed as described. […]

p97 ATPase = test: ATPase assay; format: biochemical, human; details: p97 25 nM; for relative ATPase activity: ATP 375 μM
Protocol: For ATPase assays, 1 ml of 5x assay buffer (250 mM Tris, pH 7.4; 100 mM MgCl2; 5 mM EDTA) was mixed with 3 ml water, 5 μl 0.5 M TCEP and 5 μl 10% Triton X. To 40 ul of this assay buffer, recombinant proteins were added, mixed and incubated for 30 min. Final protein concentrations were as follows: p97 (25 nM), VCF1 (range of 0, 0.025, 1, 10 and 25 nM). The reactions were started by adding 10 μl ATP (final concentration of 375 μM) to the 40 μl reactions in a 96 well plate. After 35 min at room temperature, reactions were stopped by adding 50 μl BIOMOL Green reagent (Enzo Life Sciences). Absorbance at 635 nm was measured after 4 min and the relative ATPase activity calculated. Reactions were performed in duplicates and repeated three times.

VCF1: human FAM104A isoform 1, 186 amino acids (UniProt Q969W3); recombinant Strep-HA-tagged
VCF1 molecules bound per p97 hexamer (p97 hexamer (His6-p97)): 2-3 molecules per p97 hexamer | effect of overexpression on Ub(G76V)-GFP (Ub(G76V)-GFP, U2OS cells): stabilized Ub(G76V)-GFP similar to the effect of elevating NPL4 or p47 expression levels | relative ATPase activity (p97 ATPase; 0.025 nM, replicate 1): 0.985 | relative ATPase activity (p97 ATPase; 0.025 nM, replicate 2): 0.875 | relative ATPase activity (p97 ATPase; 0.025 nM, replicate 3): 1.031 | relative ATPase activity (p97 ATPase; 1 nM, replicate 1): 1.071 | relative ATPase activity (p97 ATPase; 1 nM, replicate 2): 0.934 | relative ATPase activity (p97 ATPase; 1 nM, replicate 3): 0.99 | relative ATPase activity (p97 ATPase; 10 nM, replicate 1): 1.095 | relative ATPase activity (p97 ATPase; 10 nM, replicate 2): 1.007 | relative ATPase activity (p97 ATPase; 10 nM, replicate 3): 1.066 | effect on p97 ATPase activity (in words) (p97 ATPase): had no impact on the ATPase activity of p97 in vitro
